Consider 72 sequences from the supplement of paper PMC10567573.

A short description of the data set: protein stability index of a GFP-peptide fusion (GPS, HEK-293T) (PSI 1-6); higher = more stable.
Where [1] appears, read: treatment: DMSO, c terminus: a fixed tail appended.
Where [2] appears, read: treatment: MLN4924 1 uM, 8 h, c terminus: a fixed tail appended.

± gives the standard deviation.
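Also: 24-mer peptide tiles fused after GFP, lentivirally expressed, FACS-sorted into six equal bins by GFP/DsRed ratio, decoded by Illumina sequencing, PSI is the read-weighted mean bin number.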

RWFRSVDWEAVPQRKLKPPIVPKI [PRKX]: the protein stability index by setting is: under setting [1], 2.33 ± 0.26; under setting [2], 2.44 ± 0.29.
RWSPAQEESFRQMVVIHKEIPTGK [ZNF232] returned a protein stability index under setting [1] of 3.87 ± 0.42 and a protein stability index under setting [2] of 3.99 ± 0.17.
The corresponding values for RYRGLPAPGPSPADKKRSGKKKIS [WAS] are 4.76 ± 0.3 and 4.71 ± 0.21.
On to SAHFTSGPLVPRLAGMANHGSPQL [TBX5], for which the protein stability index reads like this: under setting [1], 3.35 ± 0.21; under setting [2], 3.5 ± 0.13.
The like results for SALEDQGSNPSSSNSSQDSLHKGA [PPFIA4] were, in that order, 5.48 ± 0.14 and 5.49 ± 0.23.
SALERLETKLHLLRQEMVNLRATD [LURAP1L]: the protein stability index reads like this: under setting [1], 2.73 ± 0.22; under setting [2], 2.79 ± 0.58.
For SALPFITYLENKGHRYPCFFNTLH [POP5], the protein stability index worked out at 2.34 ± 0.46 under setting [1] and 2.19 ± 0.42 under setting [2].
For the sequence SALTEGAKEEGGEEVAKAVLEQEE [EPB41L3], the protein stability index by setting is: under setting [1], 5.63 ± 0.3; under setting [2], 5.54 ± 0.41.
SANFHSLDDIYYFGGQNAHNQIAI [FUT8]: the protein stability index by setting is: under setting [1], 2.4 ± 0.72; under setting [2], 2.3 ± 0.24.
The like results for SASRKSAEQLRIELNAEKFKNSLL [WEE1] were, in that order, 3.2 ± 0.3 and 3.29 ± 0.38.
The like results for SASSDEPYARIQQSRRQCHAEEDQ [SMIM2] were, in that order, 5.49 ± 0.17 and 5.63 ± 0.2.
The sequence SAVAMYMLYEKQKQQNVAHCMLVS [ZBED1] had a protein stability index under setting [1] of 2.92 ± 0.54 and a protein stability index under setting [2] of 2.74 ± 0.53.
Regarding SAVVQLYAADRNCMWSKKCSGVAC [WASL], the protein stability index by setting is: under setting [1], 2.36 ± 0.23; under setting [2], 2.41 ± 0.42.
The corresponding values for SCIMENGHQPGTGPGDGPPEIAQN [SMTNL2] are 4.95 ± 0.28 and 4.99 ± 0.074.
In the case of SCSSEDNLSLVCLPRSEDDDCDDD [DRICH1], the protein stability index stood at 5.59 ± 0.17 under setting [1] and 5.66 ± 0.15 under setting [2].
The like results for SDELSWIIELLEKDGMAFQEALDP [ELF3] were, in that order, 2.62 ± 0.34 and 3.02 ± 0.26.
The corresponding values for SDLLDEKEIAKNLIQPINHTTLQC [FEM1C] are 3.83 ± 0.25 and 4.03 ± 0.39.
Regarding SDLLSEFKKHDADKVGLITLSDWA [PPEF2], the protein stability index reads like this: under setting [1], 3.35 ± 0.47; under setting [2], 3.44 ± 0.27.
The corresponding values for SDTIPYLKKFLYNFDNPWNFQNIP [MIA2] are 2.28 ± 0.84 and 2.5 ± 0.59.
In turn, SEARLSQRDLSPTAEDAELSDFEE [FCHSD1] came in with a protein stability index under setting [1] of 5.44 ± 0.38 and a protein stability index under setting [2] of 5.53 ± 0.39.
The like results for SEEAVREVHRLIEGKAPIISGVTK [TPPP] were, in that order, 4.44 ± 0.29 and 4.72 ± 0.14.
The like results for SEQLVNFTGKAEMGGPFSYVYFFC [TMEM106C] were, in that order, 2.69 ± 0.48 and 2.64 ± 0.45.
The like results for SERTDTAADGETTATEELEKTQDD [EPB41L3] were, in that order, 5.63 ± 0.2 and 5.59 ± 0.21.
On to SFIIYLKNIVIADFVMSLTFPFKI [P2RY14], for which the protein stability index is 3.16 ± 0.29 under setting [1] and 3.22 ± 0.4 under setting [2].
In the case of SFQNMNSKRKAETWKKNRRQLAYS [STK38L], the protein stability index by setting is: under setting [1], 3.23 ± 0.33; under setting [2], 3.33 ± 0.22.
The like results for SGRHILEDSCAELGESKEHMESRM [SDE2] were, in that order, 4.64 ± 0.35 and 4.48 ± 0.23.
For the sequence SGVGIDGEVLSYLELAQFHNAHQL [RHOBTB1], the protein stability index under setting [1] was 2.56 ± 0.33 and the protein stability index under setting [2] came to 2.67 ± 0.45.
The like results for SGVSDYDYLDLDKMSLYSEADSGY [TRIM9] were, in that order, 4.14 ± 0.19 and 3.76 ± 0.46.
Turning to SHAAPGPSPDSWVPRPGTPQSPPS [FCHO1], the protein stability index under setting [1] came to 5.12 ± 0.47 and the protein stability index under setting [2] worked out at 5.05 ± 0.62.
In the case of SIKMGKRNGLHLPEQVQNEIKSMK [NLN], the protein stability index is, setting by setting: under setting [1], 4.02 ± 0.17; under setting [2], 3.87 ± 0.55.
In turn, SILFGHENRVSTLRVSPDGTAFCS [GNB5] showed a protein stability index under setting [1] of 2.88 ± 0.41 and a protein stability index under setting [2] of 3.02 ± 0.13.
On to SIRDANLYVSGLPKTMSQKEMEQL [ELAVL3], for which the protein stability index worked out at 4.4 ± 0.061 under setting [1] and 4.27 ± 0.2 under setting [2].
Consider SISDVKFSHSGRYIMTRDYLTVKV [PPP2R2B], for which the protein stability index was determined as 2.37 ± 0.47 under setting [1] and 2.52 ± 0.57 under setting [2].
The like results for SISEKLSSTNFAMKRDVQEGQARC [C8orf76] were, in that order, 4.41 ± 0.23 and 4.29 ± 0.22.
The like results for SIVILDNSPGAYRSHPDNAIPIKS [CTDNEP1] were, in that order, 2.82 ± 0.27 and 2.91 ± 0.57.
For the sequence SKPWHWPINYQGLRFSGVNDTDFR [POMT2], the protein stability index under setting [1] was determined as 2.37 ± 0.17 and the protein stability index under setting [2] stood at 2.52 ± 0.26.
For the sequence SLALGDLIYVVIDLPINVFKLLAG [EDNRA], the protein stability index runs as follows: under setting [1], 2.59 ± 1; under setting [2], 3.28 ± 0.54.
The like results for SLCTHLIYAFAGMTNHQLSTTEWN [CHIT1] were, in that order, 3.43 ± 0.33 and 3.27 ± 0.38.
As for SLFARAMQVLVTAISPGRFPEALD [ANKRD9], the protein stability index under setting [1] is 3.04 ± 0.31 and the protein stability index under setting [2] came to 2.8 ± 0.54.
For SLGLSHSTDIGALMYPSYTFSGDV [MMP1], the protein stability index reads like this: under setting [1], 3.15 ± 0.4; under setting [2], 3.19 ± 0.46.
For SLGVPGSVGGVPGGTGSGDGNKIF [ZBTB22], the protein stability index is, setting by setting: under setting [1], 4.38 ± 0.26; under setting [2], 4.3 ± 0.22.
SLHDGSDGLDGISVGSYLDTLADD [LURAP1L]: the protein stability index reads like this: under setting [1], 5 ± 0.17; under setting [2], 4.93 ± 0.25.
Consider SLIILHLSGATKKGTEKQTTSETQ [NETO1], for which the protein stability index worked out at 2.35 ± 0.26 under setting [1] and 2.27 ± 0.56 under setting [2].
Consider SLIRKHAQTFIALCATDFKFAMYP [CCND2], for which the protein stability index is, setting by setting: under setting [1], 3.01 ± 0.18; under setting [2], 2.97 ± 0.51.
The like results for SLRQKQPERLCSGPGIVGNVLVDP [GMPPB] were, in that order, 3.65 ± 0.2 and 3.46 ± 0.15.
The like results for SLTVPLLGAMMLLESPIDPQPLSF [APMAP] were, in that order, 2.46 ± 0.56 and 2.81 ± 0.51.
The corresponding values for SMVDLTSVTLEDVTPKKSPPPKTN [FAN1] are 5.06 ± 0.12 and 4.9 ± 0.27.
SNHSAQDSAVENLLLLSKAKLVPS [IKZF1]: the protein stability index reads like this: under setting [1], 3.81 ± 0.22; under setting [2], 3.95 ± 0.32.
Take SNIKFCSFHPLQYIGFYGKETTNT [PDS5B]: the protein stability index under setting [1] amounted to 2.1 ± 0.47 and the protein stability index under setting [2] was 2.29 ± 0.16.
For SNKVQDSAPVETPRGKPPLNTRSQ [HMOX1], the protein stability index was determined as 5.21 ± 0.38 under setting [1] and 5.26 ± 0.27 under setting [2].
The like results for SPESGLEVRDRMLLKITIPNAFIG [DVL3] were, in that order, 2.3 ± 0.15 and 2.24 ± 0.34.
Regarding SPIKLSPTSPVYRGSSSGPSSPAR [MTUS2], the protein stability index was 4.34 ± 0.21 under setting [1] and 4.39 ± 0.2 under setting [2].
The like results for SPNTPQPVPEQSALCQGLYFHINQ [FAM104A] were, in that order, 3 ± 0.15 and 3.16 ± 0.33.
The corresponding values for SPPVDLFATASAAVPVSTSKPSSD [SNAP91] are 5.31 ± 0.12 and 5.33 ± 0.17.
Regarding SPSCPEEALAATWEQPWASEVFGP [PXN], the protein stability index was 3.62 ± 0.24 under setting [1] and 3.63 ± 0.14 under setting [2].
The like results for SPSYGRSRSRSRSRSRSRSRSNSR [SRSF1] were, in that order, 5.39 ± 0.47 and 5.43 ± 0.26.
The corresponding values for SRGGTRGWLPSHEGHLDDGGYTPD [RBMY1A1] are 4.73 ± 0.29 and 4.75 ± 0.24.
The corresponding values for SRGLHAWEISWPLEQRGTHAVVGV [SPSB2] are 2.43 ± 0.4 and 2.17 ± 0.44.
Turning to SRHCPQLPPPCAALWCSGHLNGHA [ADAMTS4], the protein stability index was 2.48 ± 0.3 under setting [1] and 2.48 ± 0.21 under setting [2].
The corresponding values for SRIKVLETSYQQREERLRRENEEL [FBF1] are 4.9 ± 0.18 and 5.07 ± 0.26.
With SRKPSLKGNREDSARMSAGLPGPE [PLEKHN1], the protein stability index worked out at 4.85 ± 0.35 under setting [1] and 4.87 ± 0.2 under setting [2].
Take SRLLIFPLYICCNFLYISPEKKN [GMCL1]: the protein stability index stood at 2.97 ± 0.27 (treatment: DMSO, c terminus: native) and 2.71 ± 0.43 (treatment: MLN4924 1 uM, 8 h, c terminus: native).
With SRRASESSLSSESSESSDAGLCMD [CDC25B], the protein stability index runs as follows: under setting [1], 5.06 ± 0.39; under setting [2], 5.33 ± 0.18.
As to SSAIEVIMLRSNESFTMDDMSWTC [VDR], the protein stability index turned out to be 2.6 ± 0.53 under setting [1] and 2.29 ± 0.38 under setting [2].
The corresponding values for SSALHLSKGMSIFLDILRRADKND [NECAB1] are 2.29 ± 0.13 and 2.6 ± 0.31.
The corresponding values for SSEASQLEDAAGGDSASEEKSGSA [FBXO34] are 5.61 ± 0.17 and 5.55 ± 0.29.
With SSELETTSFFDSDEDDSTSRFSSS [DVL3], the protein stability index was found to be 5.4 ± 0.32 under setting [1] and 5.51 ± 0.31 under setting [2].
The corresponding values for SSESSDAGLCMDSPSPMDPHMAEQ [CDC25B] are 5.675 ± 0.013 and 5.21 ± 0.2.
The like results for SSHLQSSKAGPTRIFTSNTHSSVV [KLHL13] were, in that order, 3.52 ± 0.22 and 3.52 ± 0.2.
SSISSSARRTTRSEPIRRAGKSGT [MAP2]: the protein stability index runs as follows: under setting [1], 4.89 ± 0.26; under setting [2], 5.09 ± 0.16.
The corresponding values for SSPKFREEAAFPGRRVNAKMPVYS [ELOA2] are 3.3 ± 0.17 and 3.48 ± 0.14.
The like results for SSQSSLAQEEEEEDQGRTRKRKQS [DDIT3] were, in that order, 5.55 ± 0.32 and 5.44 ± 0.09.
